According to publication PMC6854486:

Test system: RcGTA gp1 (small terminase TerS), MBP fusion (Rhodobacter capsulatus SB1003)
Assay: EMSA
Conditions: 25 mM HEPES pH 8.0, 50 mM K-glutamate, 1 mM DTT, 0.05% Triton X-100, 4% glycerol, 1 ug poly(dI-dC), 100 ng DNA in 10 ul, room temperature 30 min; 0.8% agarose …

Substance | binding signal (% bound at 40 uM protein)
rcc01397 flanking amplicon | 87
rcc01398 flanking amplicon (1.4 kbp) | 87
